In patent US20220002418A1 (HUABO BIOPHARM SHANGHAI, published 2022):

T1: Soybean trypsin inhibitor 1-S type (Sigma, T-2327) (soybean, UniProt P01070 25-205)
T1 construct: Non-target molecule, amine-coupled to the CM5 chip
T1 sequence (looked up): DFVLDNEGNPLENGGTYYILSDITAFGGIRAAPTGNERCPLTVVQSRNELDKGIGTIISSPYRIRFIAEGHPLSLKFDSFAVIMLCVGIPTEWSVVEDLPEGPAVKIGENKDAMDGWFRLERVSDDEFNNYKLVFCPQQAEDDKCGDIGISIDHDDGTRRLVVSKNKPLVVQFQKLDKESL

B1: bispecific antibody HB0025 (bifunctional antibody 900387) (bispecific antibody, human IgG1, kappa, L234A L235A)
heavy: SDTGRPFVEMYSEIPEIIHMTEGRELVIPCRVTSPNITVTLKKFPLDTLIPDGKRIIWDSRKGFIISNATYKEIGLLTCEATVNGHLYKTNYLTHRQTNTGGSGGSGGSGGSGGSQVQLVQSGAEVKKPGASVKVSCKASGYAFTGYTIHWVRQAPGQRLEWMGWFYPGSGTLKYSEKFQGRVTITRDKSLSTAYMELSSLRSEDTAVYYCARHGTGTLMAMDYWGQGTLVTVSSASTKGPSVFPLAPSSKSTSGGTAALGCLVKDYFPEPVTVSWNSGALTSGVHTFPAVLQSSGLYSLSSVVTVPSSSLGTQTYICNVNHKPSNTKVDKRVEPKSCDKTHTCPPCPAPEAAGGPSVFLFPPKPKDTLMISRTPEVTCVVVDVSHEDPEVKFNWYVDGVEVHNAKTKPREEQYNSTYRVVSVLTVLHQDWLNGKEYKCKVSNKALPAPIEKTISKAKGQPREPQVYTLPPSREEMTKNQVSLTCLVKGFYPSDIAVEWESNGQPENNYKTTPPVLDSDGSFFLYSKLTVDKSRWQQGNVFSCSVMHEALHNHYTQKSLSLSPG
light: DVVMTQTPLSLSVTPGQPASISCKSSQSLANSYGNTYLSWYLHKPGQSPQLLIYGISNRFSGVPDRFSGSGSGTDFTLKISRVEAEDVGVYYCLQGTHQPPTFGQGTKLEIKRTVAAPSVFIFPPSDEQLKSGTASVVCLLNNFYPREAKVQWKVDNALQSGNSQESVTEQDSKDSTYSLSSTLTLSKADYEKHKVYACEVTHQGLSSPVTKSFNRGEC
notes: symmetrical molecule with two H and two L chains; also called HB0025-22A3/9E3-ProA-EP; HB0025-22F5/4E6-ProA-EP
B2: bispecific antibody 900388 (bispecific antibody, human IgG1, kappa, L234A L235A)
heavy: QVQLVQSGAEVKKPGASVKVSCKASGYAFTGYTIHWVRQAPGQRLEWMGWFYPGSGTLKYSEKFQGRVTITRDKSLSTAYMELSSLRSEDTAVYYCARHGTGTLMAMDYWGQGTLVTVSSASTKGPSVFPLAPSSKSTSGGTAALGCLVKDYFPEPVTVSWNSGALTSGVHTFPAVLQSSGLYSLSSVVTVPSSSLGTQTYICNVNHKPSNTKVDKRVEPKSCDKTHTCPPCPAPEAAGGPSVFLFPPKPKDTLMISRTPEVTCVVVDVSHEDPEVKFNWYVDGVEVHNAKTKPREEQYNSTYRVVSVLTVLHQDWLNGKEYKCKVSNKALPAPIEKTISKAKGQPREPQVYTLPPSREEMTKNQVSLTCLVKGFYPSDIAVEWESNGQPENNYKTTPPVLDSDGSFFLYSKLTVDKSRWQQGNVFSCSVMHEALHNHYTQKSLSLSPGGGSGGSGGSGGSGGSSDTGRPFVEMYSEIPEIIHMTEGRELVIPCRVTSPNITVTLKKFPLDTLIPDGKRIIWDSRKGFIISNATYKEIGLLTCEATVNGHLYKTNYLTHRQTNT
light: B1 light

How the values were obtained:
[1] = molecular target: T2, Recombinant human PD-L1 (Sino Biological, 10084-H08H) (human, UniProt Q9NZQ7 19-239); assay: SPR (Biacore 8K), antibody captured on anti-human capture CM5 chip, antigen as analyte, 1:1 model
T2 construct: Bought reagent
T2 sequence (Q9NZQ7 19-239 limits assumed): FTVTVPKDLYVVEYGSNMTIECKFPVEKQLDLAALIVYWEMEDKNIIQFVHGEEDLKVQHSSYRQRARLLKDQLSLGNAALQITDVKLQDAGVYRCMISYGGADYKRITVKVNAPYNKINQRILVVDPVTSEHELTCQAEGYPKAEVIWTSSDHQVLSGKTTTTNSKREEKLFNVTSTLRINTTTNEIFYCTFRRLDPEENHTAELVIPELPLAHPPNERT
Experimental: (§1) Methods: Anti-Human Capture-CM5 chip was prepared according to the amino coupling method of the Human Antibody Capture Kit. The chip was balanced at room temperature for 20-30 min, and then loaded into Biacore 8K instrument. The transient transduced protein was diluted to experimental working concentration with equilibration buffer. The antigen was diluted to 50 nM with equilibration buffer, and then diluted to seven concentration gradients with a 3-fold dilution, and two zero concentrations (equilibration buffer) and one repeat concentration (usually a repeat of the lowest concentration) were set. According to the order of antibody, antigen, and regeneration, cyclical experimental analysis were performed on 10 antigen concentrations (2 zero concentrations, 7 gradient concentrations and 1 repeat concentration), wherein the antigen injection flow rate was 30 μL/min, binding time was 120 seconds, and dissociation time was 600 seconds. After the analysis was completed, the corresponding analysis program was selected to analyze the data, confirming that there was no obvious reference binding. Kinetics, 1:1 binding modle was selected to fit the data, and the kinetic related parameters Ka, Kd and KD values of human-mouse chimeric antibody and humanized antibody were obtained.

[2] = molecular target: T3, Recombinant human VEGF165 (Sino Biological, 11066-HNAH) (human, UniProt P15692-4 27-191); assay: as above
T3 construct: Bought reagent
T3 sequence (P15692 other isoform, or with tags, fused parts or gaps): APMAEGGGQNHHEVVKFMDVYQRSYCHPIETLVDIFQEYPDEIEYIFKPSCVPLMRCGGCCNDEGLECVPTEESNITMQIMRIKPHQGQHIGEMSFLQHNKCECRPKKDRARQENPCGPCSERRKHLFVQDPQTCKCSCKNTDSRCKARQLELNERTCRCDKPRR
Experimental: as §1

[3] = molecular target: T4, Egg white lysozyme (Sigma, L3790) (UniProt P00698 19-147); assay: SPR (Biacore 8K), same method as Example 3, lysozyme on CM5 chip
T4 construct: Non-target molecule, amine-coupled to the CM5 chip
T4 sequence (P00698 19-147 limits assumed): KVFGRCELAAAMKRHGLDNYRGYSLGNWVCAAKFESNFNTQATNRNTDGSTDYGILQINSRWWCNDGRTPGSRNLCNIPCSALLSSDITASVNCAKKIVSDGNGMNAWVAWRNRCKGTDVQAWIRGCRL
Experimental: (§2) Methods: Series S Sensor Chip CM5 was balanced at room temperature for 20-30 min, and loaded into Biacore 8K instrument. Egg white lysozyme and soybean trypsin inhibitor 1-S type were fixed to the CM5 chip, respectively, using the Amino Coupling Kit. The injection buffer was HBS-EP+1×. 4 balance cycles were setted. The rabbit polyclonal antibody against lysozyme, the antibody against trypsin inhibitor, and the humanized monoclonal antibody were diluted to 1000 nM with equilibration buffer, and the flow rate was set as 5 μL/min, and the injection channels were 1, 2 and 3. The Flow Cells were 1 and 2. The binding time was 10 min, and the dissociation time was 15 min. The regeneration flow rate was 50 μl/min, which is regenerated first with 0.85% phosphoric acid for 60 s, and then with 50 mM sodium hydroxide for 30 s. The results of non-specific adsorption of bispecific antibody HB0025 and non-target molecules are shown in Table 3, and the sensor diagram of the detection of non-specific adsorption of bispecific antibody and non-target molecules is shown in FIG. 3.

[4] = molecular target: T2, Recombinant human PD-L1 (Sino …); assay: SPR (Biacore 8K), same method as Example 2
Experimental: as §1

[5] = molecular target: T3, Recombinant human VEGF165 (Sino …); assay: SPR (Biacore 8K), same method as Example 2
Experimental: as §1

[6] = molecular target: T1, Soybean trypsin inhibitor 1-S type …; assay: SPR (Biacore 8K), same method as Example 3, soybean trypsin inhibitor on CM5 chip
Experimental: as §2

Binder	Kd [1] [nM]	koff [1] [s⁻¹]	kon [1] [M⁻¹ s⁻¹]	Kd [2] [nM]	koff [2] [s⁻¹]	kon [2] [M⁻¹ s⁻¹]	binding result [3]	Kd [4] [nM]	koff [4] [s⁻¹]	kon [4] [M⁻¹ s⁻¹]	Kd [5] [nM]	koff [5] [s⁻¹]	kon [5] [M⁻¹ s⁻¹]	binding result [6]
B1	0.844	0.000402	476000	0.0295	0.00028	9.5e+06								
B2							no binding	0.824	0.000522	633000	0.0398	0.00041	1.03e+07	no binding
